Patent US11193150B2, “Nepetalactol oxidoreductases, nepetalactol synthases, and microbes capable of producing nepetalactone” (Zymergen Inc., priority 2017, dated 2021)

B1: GAR_NOR15: NOR candidate codon-optimized for S. cerevisiae (SEQ ID NO: 1393), expressed from pESC-URA (protein, listed as Nepeta cataria)
chain: MADKEGEVVCVTGGSGFIGSWLVSLLLRRGYSVRATVKNLGDERETKHLEAIEGADSRLSLFQIDLLDYDSVATAVGDAAGVFHLASPCTIDQVNDPQRELLDPAIKGTLNVLKAAKNLGVRRVVVTSSISAMIASSNSLAETGEDCWIDEDYCRQNGLWYPVSKALAEKAAWKLAEENGLDIVVVNPGMVVGPILPPALNSSMQLMLHVLQGKDFFEGFFMGLVHVKDVALAQILLYENTSASGRHLCVESLSRYDDFAKQMEKLYPEYKLPRFSNNAQHGSLKSDAALKKLRDLGIEFAPLEQIVKDSIESLRSKGYIS
B2: NcatNOR21: candidate nepetalactol oxidoreductase (NOR) from Nepeta cataria, protein SEQ ID NO: 566 (protein, listed as Nepeta cataria)
chain: MAKSVNAVGWAARDTSGLLSPLKFARPAAGDRDVQFKVLYCGICHSDLHSIKNEWGNTQYPIVPGHEIVGVVTAVGPKATKFKAGDKVGVGCLVNSCRHCDQCAADLENYCPQLVQTYNSVLADGSVTYGGYSDVMTADEDFVIRWPENFPMDKGAPLLCAGVTTYSPLRYYGLDKPGLHIGVVGLGGLGHVAVKFAKAFGMKVTVISTSAGKKKEAIETLGADAFLISRDASEMQAAAGTLDGMIDTVSAQHPLPPLLSLLKPHGKLILVGAPEKPFELPAFPLLMGRKTVAGSVIGGLKETQEMIDFAAKHNLLPEVEMIPMDYVNTAMERLAKADVKYRFVIDVGNTLTKAD
B3: NcatNOR15: candidate nepetalactol oxidoreductase (NOR) from Nepeta cataria, protein SEQ ID NO: 561 (protein, listed as Nepeta cataria)
chain: MAKTPETEHPVKAFGYAATDNSGTFSPFKFSRRATGERDVQFKVLYCGVCHSDLHMVKNEWGVTHYPIVPGHEIVGVATEVGSKVEKVKVGDKVGVGVIVGSCRQCDQCSNDLENYCSKQILTYGAPYLDGTITRGGYSDIMVADEHFIIRWPENFPLDAGAPLLCAGITTYSPLRYFGLDKPGLRVGVNGLGGLGHVAVKFAKAFGTKVTVISSSLRKKKEAVEKLGVDEFLVSTDPEQMQAAIGTLDGIIDTVSAEHSVVSLLSLLKPHGRLIVVGAPEKPHQLPAFPLITGRKSISGSAIGGMKETQEMIDFAAKHNILPDVEVIPIDYINTAMERLLKSDVKYRFVIDVEKSLKA
B4: NcatNOR34: candidate nepetalactol oxidoreductase (NOR) from Nepeta cataria, protein SEQ ID NO: 578 (protein, listed as Nepeta cataria)
chain: MAFCRSSLLLRKALGGSRRAAAAATCSSAYACGWQSERGRWYSGGEGTTISAPGYHVNTAPSHMTGAVFWDKDKPITYEEFEMPRPKANEVLIKTKACGACHSDLHVIKGDLKFPCPCILGHEITGEVVEHGPLTETKYIERYPVGSKVIGAFIMPCGSCFYCSRGEDDLCEPYFAYNRAKGTLYDGQTRLFLRGSGKPVHMWSMSGLAEYCVTPVNGLGALPDTLPYAESSVLGCAVFTAYGAIAHAAEVKPGNSVAVIGIGGVGSSCLQIAKAFGASEIIAVDVEDGKLETAKTFGATHIINSRKEDAIAKIKELTDGRGVDIAVEAIGGPKTFAQCVGSVRAGGKAVMIGLSPTGGKGEVEITQLVRRKVKVIGSYGGRAMTDLPKLVELAEQGTFNLEAAVTRRYKFEEVAQAYQDLQNKTIVGRGVIEIM

Legend:
nepetalactol [1] = assay: Production of nepetalactone from nepetalactol in Saccharomyces cerevisiae strains expressing NOR candidates from 2μ plasmid pESC-URA; format: cell-based; settings: 2% galactose, 100 mg/L of nepetalactol fed, 30° C., 24 hours
Protocol: 300 μL of ethyl acetate was added to the cultures. The plates were sealed with a PlateLoc Thermal Microplate Sealer and the plates were shaken for one min at 750 rpm. The plates were centrifuged and the ethyl acetate layer was collected and analyzed by liquid chromatography coupled to mass spectrometry (LC-MS). Target analytes were quantified against authentic standards.
The plasmids were individually transformed into chemically competent Saccharomyces cerevisiae cells as described in EXAMPLE 2. Transformants were selected on SD-URA agar plates. Three to four replicates were picked into SD-URA liquid medium and cultured at 30° C. for one to two days with shaking at 1000 rpm. Cultures were glycerol stocked at a final concentration of 16.6% glycerol and stored at −80° C. until later use.
10 μL of the glycerol stocked strains was inoculated into 300 μL of minimal media lacking uracil, and containing 4% glucose in 96-well plates to produce seed cultures. The plates were incubated at 30° C. at 1000 rpm for 1-2 days. 10 μL of the seed cultures was then inoculated into 300 μL of minimal media lacking uracil, and containing 2% galactose and 100 mg/L of nepetalactol. 30 μL of methyl oleate was next added to the wells. The main culture plates were further incubated at 30° C., 1000 rpm for 24 hours before assays were performed to assess cell growth and titer. […]

nepetalactol [2] = assay: In vitro conversion of nepetalactol to nepetalactone by candidate NORs in clarified cell lysate with NAD+ or NADP+ (GC-MS); format: biochemical; settings: clarified lysate of E. coli BL21 (DE3) expressing the candidate, 30° C., 2 hours
Protocol: BL21 (DE3) strains were streaked out on LB plates containing kanamycin from glycerol stock and grown overnight at 37° C. A single colony was inoculated into 4 mL of LB medium containing kanamycin in 15 mL disposable culture tubes and incubated overnight at 30° C. with shaking at 250 rpm. 500 μL of the overnight culture was subcultured into 50 mL of LB medium containing kanamycin in a 250 mL baffled flask. The culture was grown at 37° C. and the optical density at 600 nm (OD600) was monitored. When OD600 reached between 0.6-1, the cultures were cooled on ice for 15 minutes. The cultures were then induced with 100 μM of isopropyl β-D-1-thiogalactopyranoside and incubated at 15° C. with shaking at 250 rpm for roughly 20 hours. Cultures were pelleted by centrifugation in 50 mL centrifuge tubes. The supernatant was decanted and the pellets were frozen at −20° C. for later processing.
Pellets were thawed on ice and resuspended with 3 mL of cold lysis buffer: 50 mM sodium phosphate, pH=7.4, 100 mM sodium chloride. All remaining steps were performed either on ice or at 4° C. The cell mixture was transferred to a 15 mL centrifuge tube and disrupted with three rounds of sonication using the Branson Sonifier 450 with a double-level microtip at 70% amplitude. A single round of sonication consisted of 6 cycles of 10 seconds with the sonicator on, and 10 seconds off. Between each round, the cell mixture was allowed to sit on ice for a minute to cool. The lysed cell mixture was transferred to 1.7 mL centrifuge tubes and centrifuged at maximum speed in a microcentrifuge for 20 minutes. The supernatant (clarified cell lysate) was collected in a separate tube and used for in vitro characterization.
The in vitro reactions were setup as follows: 2 μL of 100 mM NAD+ or NADP+ and 10 μL of 100 uM nepetalactol was added to 188 μL of the clarified cell lysate. The reactions were incubated at 30° C. shaking at 200 rpm for 2 hours. […] The organic layer was withdrawn and analyzed with gas chromatography coupled to mass spectrometry (GC-MS). […]

Molecule	nepetalactone produced (titer) (nepetalactol [1]) [mg/L]	oxidation of nepetalactol to nepetalactone (nepetalactol [2])
B1	93	–
B2	–	can oxidize nepetalactol to nepetalactone
B3	–	can oxidize nepetalactol to nepetalactone
B4	–	can oxidize nepetalactol to nepetalactone
